Reference: publication PMC4225554

Legend:
[1] = molecular target: RD1-MART1 single-chain TCR, yeast-displayed (human); experiment: flow cytometry on cells
[2] = molecular target: RD1-MART1^HIGH single-chain TCR, yeast-displayed (human); experiment: flow cytometry on cells

Row | EC50 [1] | EC50 [2] | Substance
1 | > 5000 nM | 52 nM | MART1 ([…])/HLA-A2, refolded biotinylated monomer (from UniProt P61769 21-119) (peptide-MHC)
2 | 130 nM | – | MART1 ([…])/HLA-A2-Ig dimer (from UniProt P61769 21-119) (peptide-MHC)
